Source: the RNAGym collection of RNA variant scans (doi:10.7554/elife.80360)

B1: HDV Ribozyme (parent)
chain: GGCCGGCAUGGUCCCAGCCUCCUCGCUGGCGCCGGCUGGGCAACAUUCCGAGGGGACCGUCCCCUCGGUAAUGGCGAAUGGGACCCA

Variants of: B1
Test: self-cleavage, relative activity (ratio to wild type); higher = more cleavage; co-transcriptional

Going from GGCCGGCCUGGUCCCAGCGUCCUCGCUGGCGCCGGCUGGGCAACAUUCCGAGGGGACCGUCCCCUCGGUAAUGGCGAAUGGGACCCA [A8C C19G] to GGCCGGCAUGGUCCCAGCCUCCUCGCUGGCGCCGGCUGGGCAACAUUCCGAGCGGACCGUCCCCUCGGUAAUGGCGCAUGGGACCCA [G53C A77C], the self-cleavage rises from 0.115 to 0.443.

First: GGCCGGCAUGGUCCCAGCCUCCUCGCUGGCGCCGGCUGGGCAACAUUCCGAGGGGACCGUCCCCUCGGAAAUGGCGAAUGGGACCUA [U69A C86U]
Second: GGCCGGCAUGGUCCCAGCCUCCUCGCUGGCGCCGGCUGGGCAACAUUCCGAGGUGCCCGUCCCCUCGGUAAUGGCGAAUGGGACCCA [G54U A56C]
The self-cleavage of the first is lower: 0.739 for the first, 0.861 for the second.

First: GGCCGGCAUGGUCCCAGCCUCCUCGCUGGCGCCGGCUGGGCAACACUCCGAGGGGACCGUCCCCUCGGUAAUGACGAAUGGGACCCA [U46C G74A]
Second: GGCCUGCAUGGUCCCAGCCUCCUCGCUGGCGCCGGCUGGGCAACAUUCCGAGGGGGCCGUCCCCUCGGUAAUGGCGAAUGGGACCCA [G5U A56G]
The self-cleavage of the first is higher: 0.48 for the first, 0.391 for the second.

Compared with GGCCGGCAUGGUCCCAGCCUCCUCGCUGGCGCCGGCUGGGCAACAUUCCGAGGGGACCGUCCCCGCGGUAAUGGCGAAGGGGACCCA [U65G U79G], GGCCGGCAUGGUCCCAGCCUCCUCGCUGGCGCGGGCUGGGCAACAUUCCGAGGGGACCGUCCCCUCGGUAAUGGCGAAUGGGAGCCA [C33G C84G] is lower in self-cleavage: 1.2 for the first, 0.0489 for the second.

Compared with GGCCGGCAUGGUCCCAGCCUCCUAGCUGGCGCCGGCUGGGCAACAUUCCGAGGGGACCGUCCCCUCGGUAAUGGCCAAUGGGACCCA [C24A G76C], GGCCGGCAUGGUCCUAGCCUCCUCGCUGGCGCCGGCUGGGCAACAUUCCGAGGGGACCGUCCCCUUGGUAAUGGCGAAUGGGACCCA [C15U C66U] is higher in self-cleavage: 0.936 for the first, 1.21 for the second.

First: GGCCGGCAGGGUCCCAGCCUCCUCGCUGGCGCCGGCUGGGCAACUUUCCGAGGGGACCGUCCCCUCGGUAAUGGCGAAUGGGACCCA [U9G A45U]
Second: GGCCGGCAGGGUCCCAGCCUCCUCGGUGGCGCCGGCUGGGCAACAUUCCGAGGGGACCGUCCCCUCGGUAAUGGCGAAUGGGACCCA [U9G C26G]
The self-cleavage of the first is lower: 0.692 for the first, 0.88 for the second.

Compared with GGCCGGCAUGGUCCCGGCCUCCUCGCUGGCGCCGGCUGGGCAACAUUCCGAGGGGACCGUCCCCUCGGUAAUGGCGAAUGGGAGCCA [A16G C84G], GGCCGGCAUGGUCCCAGCCUCCUCGCUGGCGCCGGCUGGGCAACAUUCCGAGGGGACCGUCUCCUCAGUAAUGGCGAAUGGGACCCA [C62U G67A] is higher in self-cleavage: 0.623 for the first, 1.12 for the second.

Compared with GGCCGGCAUGGUCCCAGCCUCCUCGCUGACGCCGGCUGGGCAACAUUCCGAGGGGACCGUCCCCUCGGUAAUGGCGAAUGGGACUCA [G29A C85U], GGCCGGCAUGGUCCCAGCCUCCUCGCUGGCGCCGGCUGGGCAACAUUCCGAGGGGACCGUCCCCUCGGUAGUGGCGAAUGGGACCCA [A71G] is higher in self-cleavage: 0.0978 for the first, 0.957 for the second.

First: GGCCGGCAUGGUGCCAGCCUCCUCGCUGGCGCCGGCUGGGCAACAUUCCGAGGGGACCGUCCCCUCGGUAAUGGCGAAUGGGACCCG [C13G A87G]
Second: GGCCGGCAUGGUCCCAGCCUCCCCGCUGGCGCCGGCUGGGCAACAUUCCGCGGGGACCGUCCCCUCGGUAAUGGCGAAUGGGACCCA [U23C A51C]
The self-cleavage of the first is lower: 0.0903 for the first, 1.08 for the second.

Compared with GGCCGGCAUGGUCCCAGCCUCCUCGCUGGCGCCGGCUGGGCAACAUUCCGAGGGGACCGUCCCCUCGGUACUGGCGAAGGGGACCCA [A71C U79G], GGCCGGCAUGGUCCCAGCCUCCUCGCUGGCGCCGGCUGGGCAACAUCCCGAGGGGCCCGUCCCCUCGGUAAUGGCGAAUGGGACCCA [U47C A56C] is higher in self-cleavage: 0.437 for the first, 0.831 for the second.

Compared with GUCCGGCAUGGUCCCAGCCUCCUCGCUGGCGCCGGCUGGGCAACAUUCUGAGGGGACCGUCCCCUCGGUAAUGGCGAAUGGGACCCA [G2U C49U], GGCCGGCAUGGUCCCAGCCUCCUCGCUGGCGCCGGCUGGGCAACAUUCUGAGGGGACCGUCCCCACGGUAAUGGCGAAUGGGACCCA [C49U U65A] is higher in self-cleavage: 0.0821 for the first, 0.966 for the second.

Compared with GGCCGGCAUGGUCUCAGCCUCCUCGCUGGCGCCGGCUGGGCAACAUUCCGAGGGGACCGUCCCCUCGGUAAUGGCGAAUGGGACACA [C14U C85A], GGCCGGCAUGGUCCCAGCCUCCUCGCUGGCGCCGGCUGGGCAACAUUCCGGGGGGACCGUCCCCUCGGUAAUGGCUAAUGGGACCCA [A51G G76U] is lower in self-cleavage: 0.978 for the first, 0.942 for the second.

Going from GGCCGACAUGGUCCCAGCCUCCUCGCUGGCGCCGGCUGGGCAACAGUCCGAGGGGACCGUCCCCUCGGUAAUGGCGAAUGGGACCCA [G6A U46G] to GGCCGGCAUGGUCCCAGCGUCCUCGCUGGCGCCGGCUGAGCAACAUUCCGAGGGGACCGUCCCCUCGGUAAUGGCGAAUGGGACCCA [C19G G39A], the self-cleavage falls from 0.229 to 0.032.

Compared with GGCCGGCAUGGUCCAAGCCUCCUCGCUGGCGCCGGCUGGGCAACAUUCCGAGGGGACCGUCCCCUCGGUAAUGGCGAUUGGGACCCA [C15A A78U], GGCCGGGAUGGUCCCAGCCUCCUCGCUGGCGCCGGCUGGGCAACAUUCCGAGGGGACCAUCCCCUCGGUAAUGGCGAAUGGGACCCA [C7G G59A] is higher in self-cleavage: 0.0639 for the first, 0.332 for the second.

First: GGCCGGCAUGGUCCCAGCAUCCUCGCUGGCGCCGGCUGGGCAACAUUCCGAGGGGACGGUCCCCUCGGUAAUGGCGAAUGGGACCCA [C19A C58G]
Second: GGCCGGCAUGGUCCCAGCCUCCUCGCUGGCGCCGGCUGGGCAACAUUCAGAGGGGACCGUCCCCUCGGUAAUGGCGAAUGGGAUCCA [C49A C84U]
The self-cleavage of the first is lower: 0.0519 for the first, 0.686 for the second.

Going from GGCCGGCAUGGUCCCAGCCUCCUCGCUGGCGCCGGCUGGGCAACAUUCCGAGGGGACCGUCCCCUUGGUAAUGGCGAAUCGGACCCA [C66U G80C] to GGCCGGCAUGGUCCCAGCCUCCUCGCUGGCGCCGGCUGGGCAACAUUCCGAGGGGACCGUCCCCUCGGUAACGGCGAAUGGCACCCA [U72C G82C], the self-cleavage rises from 0.153 to 0.26.
